Measurements from patent US20210292422A1 (SURROZEN, published 2021).
Each block holds one binder with its values, some of them ahead of it.

Legend:
Fzd7 CRD = Fzd7 CRD (UniProt O75084 44-163); assay: BLI (Octet Red 96), biotinylated Fzd7 CRD on SA biosensor
Method: Following capture of biotinylated-Fzd7, the SA biosensor with captured biotinylated-Fzd7 was dipped into wells containing the relevant antibodies at 7 different concentrations in running buffer plus a well with only running buffer as a reference channel. KD was determined by global fitting.

LRP6e3e4 = target: T1, LRP6e3e4 (UniProt O75581 631-1246); assay: column 'Specificity (Clone name)' of the component table; method not given there
T1 construct: domain: e3e4; also called LRP6 E3E4 domain
T1 sequence (looked up): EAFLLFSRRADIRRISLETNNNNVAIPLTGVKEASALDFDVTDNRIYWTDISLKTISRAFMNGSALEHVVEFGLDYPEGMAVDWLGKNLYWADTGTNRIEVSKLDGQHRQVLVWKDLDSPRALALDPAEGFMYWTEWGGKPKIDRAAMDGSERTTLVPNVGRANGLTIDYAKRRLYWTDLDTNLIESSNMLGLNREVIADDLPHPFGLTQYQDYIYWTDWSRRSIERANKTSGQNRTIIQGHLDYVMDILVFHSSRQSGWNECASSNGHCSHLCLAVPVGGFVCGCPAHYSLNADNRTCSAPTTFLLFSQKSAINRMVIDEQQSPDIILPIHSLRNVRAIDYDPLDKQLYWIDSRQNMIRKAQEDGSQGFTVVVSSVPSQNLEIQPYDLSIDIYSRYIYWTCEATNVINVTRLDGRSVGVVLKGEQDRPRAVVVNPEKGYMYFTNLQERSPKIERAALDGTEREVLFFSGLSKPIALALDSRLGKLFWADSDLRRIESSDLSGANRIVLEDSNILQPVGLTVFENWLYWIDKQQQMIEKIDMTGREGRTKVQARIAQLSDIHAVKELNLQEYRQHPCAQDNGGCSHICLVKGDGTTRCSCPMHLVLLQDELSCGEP

Frizzled 7 (Fzd7) = Frizzled 7 (Fzd7) (UniProt O75084 44-163); assay: BLI (Octet), FIG. 15A
LRP6e1e2 = target: T2, LRP6e1e2 (UniProt O75581 20-630); assay: column 'Specificity (Clone name)' of the component table; method not given there
T2 construct: domain: e1e2; also called LRP6 E1E2 domains
T2 sequence (looked up): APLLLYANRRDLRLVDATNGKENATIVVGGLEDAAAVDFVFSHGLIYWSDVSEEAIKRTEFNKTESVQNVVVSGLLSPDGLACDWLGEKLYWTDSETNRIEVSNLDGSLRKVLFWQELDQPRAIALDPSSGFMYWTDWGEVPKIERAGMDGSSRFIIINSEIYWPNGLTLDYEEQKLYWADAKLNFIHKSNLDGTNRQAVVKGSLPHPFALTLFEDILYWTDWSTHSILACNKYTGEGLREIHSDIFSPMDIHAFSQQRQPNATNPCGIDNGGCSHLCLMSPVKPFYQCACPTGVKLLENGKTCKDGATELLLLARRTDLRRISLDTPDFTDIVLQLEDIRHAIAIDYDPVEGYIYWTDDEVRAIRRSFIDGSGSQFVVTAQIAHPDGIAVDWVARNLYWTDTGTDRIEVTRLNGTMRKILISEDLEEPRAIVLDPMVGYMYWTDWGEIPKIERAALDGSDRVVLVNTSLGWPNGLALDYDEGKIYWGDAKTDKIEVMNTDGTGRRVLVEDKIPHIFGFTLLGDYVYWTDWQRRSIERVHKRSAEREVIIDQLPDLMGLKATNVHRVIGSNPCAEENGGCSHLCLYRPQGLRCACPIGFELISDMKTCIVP

B1: 1291-3 (bispecific antibody, human IgG1, kappa, L234A L235A)
light: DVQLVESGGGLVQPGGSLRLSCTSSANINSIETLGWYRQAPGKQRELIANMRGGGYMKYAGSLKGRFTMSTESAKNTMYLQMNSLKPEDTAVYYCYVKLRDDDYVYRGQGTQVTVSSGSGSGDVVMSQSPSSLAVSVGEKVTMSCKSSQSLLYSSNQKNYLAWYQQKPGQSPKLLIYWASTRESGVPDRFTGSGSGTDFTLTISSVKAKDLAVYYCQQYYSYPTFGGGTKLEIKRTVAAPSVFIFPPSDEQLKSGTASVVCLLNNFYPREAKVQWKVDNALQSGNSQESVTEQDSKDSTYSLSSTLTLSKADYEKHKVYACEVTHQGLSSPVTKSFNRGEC
heavy: EVQLVESGGGLVKPGGSLKLSCAASGFTFSSYAMSWVRQTPEKRLEWVATISDGGSYTRYPDKLKGRFTISRDNAKNNLYLQMSHLKSEDTAMYYCARVGGRRDYFDYWGQGTTLTVSSASTKGPSVFPLAPSSKSTSGGTAALGCLVKDYFPEPVTVSWNSGALTSGVHTFPAVLQSSGLYSLSSVVTVPSSSLGTQTYICNVNHKPSNTKVDKKVEPKSCDKTHTCPPCPAPEAAGGPSVFLFPPKPKDTLMISRTPEVTCVVVDVSHEDPEVKFNWYVDGVEVHNAKTKPREEQYNSTYRVVSVLTVLHQDWLNGKEYKCKVSNKALGAPIEKTISKAKGQPREPQVYTLPPSREEMTKNQVSLTCLVKGFYPSDIAVEWESNGQPENNYKTTPPVLDSDGSFFLYSKLTVDKSRWQQGNVFSCSVMHEALHNHYTQKSLSLSPGK
binding result (Fzd7 CRD): no binding

B4: L1: antiLRP6E1E2 (1115.3) scFv (scFv)
scFv: DVKLVESGGGLVKLGGSLRLSCAASGFSFSTSYMSWVRQTPEKRLELVAAINLNGGSTYYSDTVKGRFTISRDNAKNTLYLQMSSLKSEDTAFYYCASELAGYGTPFAYWGQGTLVTVSAGSAASGSSGGSSSGADIVLTQSPATLSVTPGDSVSLSCKASQSISYNLHWYQQKSHESPRLLIKYTSQSISGIPSRFSGSGSGTDFTLTINNVETEDFGMYFCQQSNSWPLTFGAGTKLEVK
binding result (LRP6e1e2): binds

Results, then the binder that gave them:

binding result (LRP6e3e4): binds
B2: L2: antiLRP6E3E4 (G211) scFv (scFv)
scFv: EVQLVESGGGLVQPGGSLRLSCAASGFTFTSYYISWVRQAPGKGLEWVAEISPYSGSTYYADSVKGRFTISADTSKNTAYLQMNSLRAEDTAVYYCALRARPPIRLHPRGSVMDYWGQGTLVTVSSGSAASGSSGGSSSGADIQMTQSPSSLSASVGDRVTITCRASQDVSTAVAWYQQKPGKAPKLLIYSASFLYSGVPSRFSGSGSGTDFTLTISSLQPEDFATYYCQQSYTTPPTFGQGTKVEIK
notes: also called YW211.31.57

binding result (Frizzled 7 (Fzd7)): binds
B3: F2 (R2H1) (scFv)
scFv: EVQLVESGGGLVQPGGSLRLSCAASGFNISSSYIHWVRQAPGKGLEWVAYIYSSYGSTYYADSVKGRFTISADTSKNTAYLQMNSLRAEDTAVYYCARASWYALDYWGQGTLVTVSSGSAASGSSGGSSSGADIQMTQSPSSLSASVGDRVTITCRASQSVSSAVAWYQQKPGKAPKLLIYSASSLYSGVPSRFSGSRSGTDFTLTISSLQPEDFATYYCQQYWYGVAPITFGQGTKVEIK
notes: also called antiFZD1,2,7

binding result (Fzd7 CRD): no binding
B5: 1791-3 (bispecific antibody, human IgG1, kappa, L234A L235A)
light: DVQLVESGGGLVQPGGSLRLSCTSSANINSIETLGWYRQAPGKQRELIANMRGGGYMKYAGSLKGRFTMSTESAKNTMYLQMNSLKPEDTAVYYCYVKLRDDDYVYRGQGTQVTVSSGSGSGDIVMTQSPKSMSMSVGERVTLRCKASENVLNYVSWYQQKPEQSPKLLIYGASNRYTGVPDRFTGSGSATDFTLTISSVQAEDLADYHCGQSYRYPTFGAGTKLELKRTVAAPSVFIFPPSDEQLKSGTASVVCLLNNFYPREAKVQWKVDNALQSGNSQESVTEQDSKDSTYSLSSTLTLSKADYEKHKVYACEVTHQGLSSPVTKSFNRGEC
heavy: EVQPVESGGGLVQPKGSLKLSCAASGFTFNTYAMHWVRQAPGKGLEWVARIRSKSNNYAKNYDDSVKDRFTISRDDSQSMLYLQMNNLKTEDTAMYYCVRENYGGRFDYWGQGTTLTVSSASTKGPSVFPLAPSSKSTSGGTAALGCLVKDYFPEPVTVSWNSGALTSGVHTFPAVLQSSGLYSLSSVVTVPSSSLGTQTYICNVNHKPSNTKVDKKVEPKSCDKTHTCPPCPAPEAAGGPSVFLFPPKPKDTLMISRTPEVTCVVVDVSHEDPEVKFNWYVDGVEVHNAKTKPREEQYNSTYRVVSVLTVLHQDWLNGKEYKCKVSNKALGAPIEKTISKAKGQPREPQVYTLPPSREEMTKNQVSLTCLVKGFYPSDIAVEWESNGQPENNYKTTPPVLDSDGSFFLYSKLTVDKSRWQQGNVFSCSVMHEALHNHYTQKSLSLSPGK
